According to article PMC6426840:

Biological target: recombinant human matrix metalloproteinase-2 (rh-proMMP2 activated with APMA) (human) (UniProt P08253)
UniProt P08253, sequence (P08253 30-660): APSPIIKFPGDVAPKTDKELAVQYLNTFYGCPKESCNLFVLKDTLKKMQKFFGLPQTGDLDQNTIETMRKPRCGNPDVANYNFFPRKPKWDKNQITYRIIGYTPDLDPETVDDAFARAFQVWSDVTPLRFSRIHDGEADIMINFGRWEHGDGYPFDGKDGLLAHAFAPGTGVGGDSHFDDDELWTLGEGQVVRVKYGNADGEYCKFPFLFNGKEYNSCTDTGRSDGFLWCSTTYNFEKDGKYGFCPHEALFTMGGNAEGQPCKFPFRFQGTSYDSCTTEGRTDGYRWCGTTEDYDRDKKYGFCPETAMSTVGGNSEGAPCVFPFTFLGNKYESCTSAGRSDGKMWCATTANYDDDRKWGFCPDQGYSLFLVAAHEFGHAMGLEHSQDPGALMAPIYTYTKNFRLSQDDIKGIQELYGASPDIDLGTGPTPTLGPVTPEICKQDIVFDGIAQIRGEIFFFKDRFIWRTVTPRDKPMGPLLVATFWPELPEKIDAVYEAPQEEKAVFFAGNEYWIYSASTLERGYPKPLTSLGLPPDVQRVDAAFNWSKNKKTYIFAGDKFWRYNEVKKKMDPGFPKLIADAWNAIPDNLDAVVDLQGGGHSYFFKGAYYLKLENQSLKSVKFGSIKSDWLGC

B1: recombinant human tissue inhibitor of metalloproteinases 3 (natural protein)
chain: CTCSPSHPQDAFCNSDIVIRAKVVGKKLVKEGPFGTLVYTIKQMKMYRGFTKMPHVQYIHTEASESLCGLKLEVNKYQYLLTGRVYDGKMYTGLCNFVERWDQLTLSQRKGLNYRYHLGCNCKIKSCYYLPCFVTSKNECLWTDMLSNFGYPGYQSKHYACIRQKGGYCSWYRGWAPPDKSIINATDP
- MMP2 enzyme activity left (fluorogenic peptide MCA-Pro-Leu-Ala-Nva-Dpa-Ala-Arg-NH2, endpoint after 5 h) with 100 ng/mL rhMMP2 and 40 ng/mL rhTIMP3, molecular ratio about 1:1, without GAG: 15%
- TIMP3-induced inhibition of MMP2 enzyme activity when hyaluronan (HA, 200 µg/mL) is added to MMP2 and TIMP3 pre-incubated for 30 min at 25 °C; change against the control without GAG: 5%
